The source of these data is patent US20230399384A1 (University of Texas, published 2023).

Changes are numbered by the printed parent chain.

Broadly, the EC50 is the concentration needed to bring the measured effect to its halfway point. A lower EC50 goes with an effect from little substance. For orientation: Kd means the constant that tells how readily two partners part at equilibrium. Lower therefore signals a tighter complex. By koff is commonly meant the rate constant with which the complex falls apart. By kon is commonly meant the second-order rate constant of association. The low end stands for slow association, the high end for fast association. Broadly, the IC50 is the concentration that inhibits the measured activity by half. A lower IC50 goes with greater potency in that assay.

The chains are these.
B1: CoV2-09 (antibody, V domains shown)
VH: QVQLHQWGAGLLKPSETLSRTCAVYGGSFSGYYWTWIRQAPGKGLEWIGEINHGGSTRYNPSLESRVSISVDTSKKQFSLELRSVTAADTAIYYCARGYDTNWYGDGYNWFDPWDRGTLVTVSS
VL: QSALTQDPSVSVALGQTVRITCQGDSLRGSFASWYRQKPGQAPVLVIFGINNRPSGVPDRFSGSSSGNTASLTITGAQAEDEADYYCNSRESNSNRILFGGGTKVTVL
B2: CoV2-06 (antibody, V domains shown)
VH: QVELQESGPGLVKPSGTLSLTCAVSGGSISSNNWWTWVRQPPGKGLEWIGEIHHSGGTNYNPSLKSRVTMSVDKSKNQFSLNLYSVTAADTAVYYCTRDRAGGTYSGFDFWGQGTLVTVSS
VL: QAVVTQPASVSGSPGQSITISCTGTSSDVGGYNYVSWYQQHPGKAPKLMIYDVSNRPSGVSNRFSGSKSGNTASLTISGLQAEDEADYYCSSYTSSSTVVFGGGTKVTVL
B3: CoV2-26 (antibody, V domains shown)
VH: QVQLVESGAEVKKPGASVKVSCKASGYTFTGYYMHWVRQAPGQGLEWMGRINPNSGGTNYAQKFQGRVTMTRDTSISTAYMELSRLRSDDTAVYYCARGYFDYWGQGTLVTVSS
VL: QSALTQPPSASGTPGQRVTISCSGSSSNIGSNSVNWYQQVPGTAPKLLIYANDHRPSGVPDRFSGSKSGTSASLAISGLQSEDEADYYCAAWDNSLKGVVFGGGTKVTVL
B4: 07 (antibody, V domains shown)
VH: EVQLVESGGGVFQPGRSLRLSCAASGFTFSDFGMHWVRQAPGKGLEWVAVTSHDGSSKFYADSVKGRFTVSRDNSKNKLYLEMNSLRVEDSAVYYCAKDSDNGYDADFFDYWGQGTLVTVSS
VL: not shown
notes: also called CoV2-07; phage clone 07
B5: CoV2-05 (antibody, V domains shown)
VH: EVQLVESGGGVARPGGSLRLSCAASGFTFDDYGMSWVRQVPGKGLEWVAGINWNGERIGYADSVKGRFTISRDNAKNSLYLQMNSLRAEDTALYYCARPSGDYVAWYFNLWGRGTLVTVSS
VL: QAALTQPRSVSGSPGQSVTISCTGTGSDVGPYKYVSWYQQHPGKAPKLMIYDVNERPSGVPDRFSGSKSGNTASLTISGLQAEDEADYYCGSYAGNNKWVFGGGTKLTVL
B6: CoV2-28 (antibody, V domains shown)
VH: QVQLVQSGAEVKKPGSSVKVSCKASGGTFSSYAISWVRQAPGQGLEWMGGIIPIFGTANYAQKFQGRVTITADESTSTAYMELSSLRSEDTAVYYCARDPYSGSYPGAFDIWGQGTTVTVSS
VL: B2 VL with S91N, S95R, V99S, G103T, K106Q, V107L
B7: CoV2-03 (antibody, V domains shown)
VH: QVQLVESGAEMKKPGASVKVSCKTSGYTFTNSYIHWVRQAPGQGLEWMGWINPISGGTNYAQKFQGRVTMTRDTSINTAYMELSRLRSDDTAVYYCARDRGDYDYGWGTSPFYFDYWGQGTLVTVSS
VL: not shown
B8: CoV2-19 (antibody, V domains shown)
VH: B7 VH with E6Q
VL: AIQLTQSPSSLSASVGDRVTITCRTSHTVNSYLNWYQQEPGKAPKLLIYAASNLQSGVPSRFSGSGSGTDFSLTIHNLQPEDFATYYCQQSYRTPLTFGQGTKVDIK
B9: CoV2-02 (antibody, V domains shown)
VH: B7 VH with L4M, E6Q, T124S
VL: AIQMTQSPSSLSASVGDRVTITCRASQPISKYLNWYQQKPGKAPKLLIYAASSLQSGVPSSFSGSGFGTDFTLTISNLQPEDFATYYCQQSNGIPLTFGGGTKVDIK
B10: CoV2-22 (antibody, V domains shown)
VH: B7 VH with E6Q
VL: DVQMTQSPSSLSASVGDRVTITCRASQSISSYLNWYQQKPGKAPKLLIYGASSLESGVPSRFSGGGSGTDFTLTISSLQPEDFASYYCQQSYSIPFTFGPGTTVDIK
B11: CoV2-24 (antibody, V domains shown)
VH: QVQLHQWGAGLLKPSETLSRTCAVYGGSFSGYYWTWIRQAPGKGLEWIGEINHGGSTRYNPSLESRVSISVDTSKKQFSLELRSVTAADTAIYYCARGLVGGGAFDIWGQGTMVTVSS
VL: NFMLTQPSSVSVAPGQTARITCGGDNIGSTGVHWYQQKPGQAPVLVVYDDTDRPSGIPERFSGSKSGNTAALTISGVEAGDEADFYCQVWDSSGHSYVFGTGTKVTVL
B12: CoV2-23 (antibody, V domains shown)
VH: QVQLVESGGGLVQPGRSLRLSCAASGFTFDDYAMHWVRQAPGKGLEWVSGISWNSGSIGYADSVKGRFTISRDNAKNSLYLQMNSLRAEDTALYYCAKDMDIWFGGGLDYWGQGTLVSVSS
VL: DVQMTQSPSSVSASVGDRVTITCRASEGIGNWLAWYQQKPGKAPKLLIYEASSLQSGVPSRFSGSGSGADFTLTISSLQPEDFGTYYCLQANSFPITFGRGTKLEIK
B13: CoV2-13 (antibody, V domains shown)
VH: QVQLQQSGAEVKKPGSSVKVSCKASGGNFRSHTFSWVRQAPGQGLEWMGEIMPRFGATNYAQKFQGRVTITADESTGTTYMELSSLKSHDTAVYFCAADLGSGRKFDSWAQGTLVSVSS
VL: NIQMTQSPSSLSASVGDRVTITCRASQGIGSDLGWYQQRPGKAPKRLIYAASSLQSGVPSRFSGSGSGTEFTLTISSLQPEDFATYYCLQHNSYPLTFGQGTKVEIK

The target in the first assay is SARS-CoV-2 S protein on live SARS-CoV-2-mNG reporter virus (SARS-CoV-2, UniProt P0DTC2 14-1273). Nature of the assay: cell-based or functional assay.
Regarding B1, the “NC50 (neutralisation of reporter SARS-CoV-2, Vero E6 cells)” value (shortened to “NC50”) came out at 0.66 µg/mL.

As for B2, the “NC50” value amounted to 0.15 µg/mL.

Turning to B3, the “NC50” value was determined as 0.41 µg/mL.

The next assay has as its target sCoV-RBD (Fc-tagged RBD of SARS-CoV S protein) (SARS-CoV; human, UniProt P59594 306-527). Kind of assay: phage ELISA, scFv on phage. (In general: An ELISA detects its analyte on a solid surface through an enzyme-linked reagent.)
B4: the binding result was “no binding”.

As for B5, the binding result is recorded as “no binding”.

Turning to B6, the binding result is “no binding”.

As for B7, the binding result is reported as “no binding”.

In the case of B8, the binding result is given as “no binding”.

Take B9: the binding result was “no binding”.

As for B10, the binding result is reported as “no binding”.

Consider B11, for which the binding result is listed as “no binding”.

In a further assay the target is T1, sCoV2-RBD (Fc-tagged RBD of SARS-CoV-2 S protein) (SARS-CoV-2; human, UniProt P0DTC2 319-541). Kind of assay: ELISA titration on coated sCoV2-RBD.
For B12, the EC50 is 1.04 nM.

For the molecule B13, the concentration for a half-maximal effect (EC50) amounted to 0.17 nM.

B5 displayed a concentration for a half-maximal effect (EC50) of 7.82 nM. This EC50 is about 46-fold higher than that of the molecule before.

On to B6, for which the EC50 is 130 nM.

In turn, B7 gave a concentration giving a half-maximal response (EC50) of 3.35 nM.

Molecule B8 registered a 50% effective concentration (EC50) of 5.02 nM.

For B9, the EC50 was 0.47 nM.

B10 registered an EC50 of 3.41 nM.

B11: the concentration giving a half-maximal response (EC50) is 29.7 nM.

In a further assay the target is SARS-CoV-2 RBD protein (Sino Biological, Cat: 40592-V08B) (SARS-CoV-2, UniProt P0DTC2 319-541). Nature of the assay: BLI (Octet), mAb on Protein A sensor. On the technique in general: Biolayer interferometry detects binding as a change in optical thickness at a sensor tip.
As to B13, the Kd turned out to be 50.7 nM, the off-rate constant (koff) was found to be 0.00103 s⁻¹ and the kon came to 20300 M⁻¹ s⁻¹.

In turn, B5 returned a dissociation constant Kd of 7.16 nM, a koff of 0.000602 s⁻¹ and an association rate constant (kon) of 84100 M⁻¹ s⁻¹.

In turn, B8 had an equilibrium dissociation constant (Kd) of 138 nM, a koff of 0.00137 s⁻¹ and an on-rate (kon) of 9870 M⁻¹ s⁻¹.

Molecule B9 came in with a Kd of 7.85 nM, an off-rate (koff) of 0.000499 s⁻¹ and a kon of 63500 M⁻¹ s⁻¹.

The target in a further assay is S protein of SARS-CoV (SARS-CoV, UniProt P59594 14-1195). Kind of assay: ELISA, purified IgG1 on coated S protein.
Take B5: the binding result was “no binding (tested: one concentration, not printed)”.

Regarding B6, the binding result is “no binding (tested: one concentration, not printed)”.

For the molecule B7, the binding result is “no binding (tested: one concentration, not printed)”.

For B8, the binding result was “no binding (tested: one concentration, not printed)”.

Regarding B9, the binding result is “no binding (tested: one concentration, not printed)”.

On to B10, for which the binding result was “no binding (tested: one concentration, not printed)”.

Consider B11, for which the binding result is given as “no binding (tested: one concentration, not printed)”.

Another assay deals with T1, sCoV2-RBD (Fc-tagged RBD of SARS-CoV-2 …). Nature of the assay: BLI (Octet) blocking of ACE2 binding to captured sCoV2-RBD.
Take B13: the IC50 amounted to 2.29 µg/mL.

Take B5: the IC50 came to 4.18 µg/mL.

Molecule B7 displayed a 50% inhibitory concentration (IC50) of 14.8 µg/mL.

Regarding B8, the IC50 came out at 14.5 µg/mL.

The molecule B9 showed an IC50 of 17.7 µg/mL.
